Consider 1 protein from paper doi:10.1101/2020.12.16.421545v1.

Substrate in the data set: CCCC(=O)Oc1ccc([N+](=O)[O-])cc1
In words: purified protein. Particulars: 36 nM enzyme, no added Co2+. The class given is biochemical, uncultured Pseudomonadota bacterium.

Where [1] appears, read: without Triton X-100, sigmoidal (hysteresis).

B1: Ade1 (Amazonian Dark Earth Esterase 1) (uncultured Pseudomonadota bacterium) (protein)
chain: MLYAQVNGINLHYEIEGQGQPLLLIMGLGAPAAAWDPIFVQTLTKTHQVIIYDNRGTGLSDKPDMPYSIAMFASDAVGLLDALNIPRAHVFGVSMGGMIAQELAIHYPQRVASLILGCTTPGGKHAVPAPPESLKALEGRAGLTPEEAIREGWKLSFSEEFIHTHKAELEAHIPRLLAQLTPRFAYERHFQATMTLRVFKQLKEIQAPTLVATGRDDMLIPAVNSEILAREIPGAELAIFESAGHGFVTSAREPFLKVLKEFLARQSV
The term kcat denotes the maximal rate divided by the concentration of active sites. As for B1, under “with Triton X-100”, the K0.5 is 254 ± 25 µM and the catalytic constant (kcat) is 47 ± 1 s⁻¹. In addition, under setting [1], the K0.5 was 392 ± 29 µM and the kcat came to 94 ± 3 s⁻¹.
